Measured values taken from the supplement of paper PMC6755084.

B1: F1*; the commonest letter at each place (parent)
chain: GAGACCGCAACTGAAAAGTTGTTATCACTTGTCGTAAGACACTTTGGATGGGTTGAAGTTCTGCACGTAGAAGCAAAAGGC

Variants of: B1
Assay: fraction ligated after 30 min (ligated reads / total reads); higher = more ligase activity
Settings: with F1*sub RNA substrate (template-directed ligation), 42 °C
In short: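 Ligase ribozyme variants were made from oligo-pool templates by PCR amplification, T7 transcription and gel purification. After gel separation, ligated and unligated bands were reverse transcribed with barcoded primers and sequenced on a MiSeq, with core bases filtered at quality ≥20. The fraction ligated for each variant was the number of ligated reads divided by total reads.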

Variant	fraction ligated
C28T G38A	0.811
C28T G38C	0.799
C28T G38T	0.795
C28A G31A	0.84
C28A G31C	0.831
C28A G31T	0.826
T29A G47T	0.473
T29A G47A	0.804
T29A G47C	0.249
C28A A48C	0.477
C28A A48G	0.784
C28A A48T	0.424
C28T A48T	0.709
C28T A48G	0.788
C28T A48C	0.606
C28G T32A	0.795
C28G T32C	0.723
C28G T32G	0.783
C28A T44G	0.798
C28A T44C	0.802
C28A T44A	0.834
C28G G55C	0.28
C28G G55A	0.779
C28G G55T	0.763

Variant	fraction ligated
C28A T49G	0.724
C28A T49C	0.605
C28A T49A	0.679
T29C A41G	0.766
T29C A41T	0.788
T29C A41C	0.768
C28G A57G	0.791
C28G A57C	0.77
C28G A57T	0.79
T29C	0.824
T29A	0.848
C28A A41G	0.779
C28A A41T	0.827
C28A A41C	0.794
T29C A37C	0.828
T29C A37T	0.833
T29C A37G	0.824
C28T G55C	0.221
C28T G55T	0.765
C28T G55A	0.801
C28G A36T	0.788
C28G A36G	0.812
C28G A36C	0.759
C28G G31T	0.833

Variant	fraction ligated
C28G G31C	0.81
C28G G31A	0.799
C28G T35G	0.759
C28G T35C	0.802
C28G T35A	0.814
C28A A57C	0.776
C28A A57T	0.789
C28A A57G	0.8
T29A A36C	0.855
T29A A36G	0.853
T29A A36T	0.847
T29A A48G	0.803
T29A A48C	0.761
T29A A48T	0.801
C28T C40G	0.81
C28T C40T	0.796
C28T C40A	0.824
C28G G38T	0.772
C28G G38C	0.778
C28G G38A	0.792
C28A T32A	0.836
C28A T32C	0.756
C28A T32G	0.812
T29A G34A	0.852

Variant	fraction ligated
T29A G34T	0.842
T29A G34C	0.816
C28T A56T	0.731
C28T A56G	0.567
C28T A56C	0.595
C28G G34C	0.768
C28G G34A	0.794
C28G G34T	0.798
C28A A37G	0.793
C28A A37T	0.801
C28A A37C	0.779
C28T T43C	0.781
C28T T43A	0.803
C28T T43G	0.8
C28A T43A	0.799
C28A T43C	0.795
C28A T43G	0.812
T29C G31A	0.796
T29C G31C	0.804
T29C G31T	0.755
T29A A41T	0.827
T29A A41G	0.816
T29A A41C	0.801
C28T C33A	0.816

Variant	fraction ligated
C28T C33T	0.822
C28T C33G	0.809
C28A T45C	0.499
C28A T45A	0.698
C28A T45G	0.0334
T29C A48C	0.745
T29C A48G	0.389
T29C A48T	0.592
C28G A48C	0.405
C28G A48G	0.751
C28G A48T	0.47
C28T T30G	0.791
C28T T30A	0.814
C28T T30C	0.805
C28A A56T	0.784
C28A A56C	0.718
C28A A56G	0.681
C28G C33G	0.505
C28G C33A	0.757
C28G C33T	0.786
C28A G50C	0.163
C28A G50A	0.154
C28A G50T	0.517
T29A C33T	0.859

Variant	fraction ligated
T29A C33G	0.868
T29A C33A	0.852
C28T C42A	0.805
C28T C42G	0.813
C28T C42T	0.819
C28T A41G	0.789
C28T A41T	0.806
C28T A41C	0.792
C28G T45C	0.337
C28G T45A	0.558
C28G T45G	0.259
C28T T32C	0.753
C28T T32A	0.822
C28T T32G	0.8
T29A G46T	0.793
T29A G46A	0.808
T29A G46C	0.779
C28G C40G	0.812
C28G C40A	0.791
C28G C40T	0.806
C28G A41C	0.751
C28G A41G	0.744
C28G A41T	0.801
C28A G46T	0.803

Variant	fraction ligated
C28A G46A	0.829
C28A G46C	0.79
T29C A57G	0.855
T29C A57T	0.774
T29C A57C	0.797
C28G G50C	0.19
C28G G50A	0.224
C28G G50T	0.594
T29A C40T	0.857
T29A C40G	0.854
T29A C40A	0.851
C28G C42T	0.815
C28G C42G	0.851
C28G C42A	0.824
T29A T32G	0.842
T29A T32C	0.774
T29A T32A	0.869
T29A T43C	0.804
T29A T43G	0.85
T29A T43A	0.84
C28G A37G	0.809
C28G A37C	0.766
C28G A37T	0.808
